In patent US20090226474A1, “Antibodies as T cell receptor mimics, methods of production and uses thereof” (priority 2004, published 2009):

Assays:
[1] = biological target: GVL peptide-HLA-A2 complex (human); experiment: flow cytometry, T2 cells pulsed with 50 to 0.1 µg/ml GVL peptide
[2] = biological target: GVL peptide-HLA-A2 complex (human); experiment: cell-based or functional assay

- MFI [1]: 250 to 350 MFI
- CDC of T2 cells pulsed with 50 to 0.1 µg/ml GVL peptide, antibody 10 µg/ml [2]: 53 to 70%
Substance: BB7.2 mAb (antibody)
